Assay results reported in publication PMC12839305.

Target: T1, RVFV glycoprotein Gn head domain (154–469 aa) (Rift Valley fever virus), P21401
T1 chain: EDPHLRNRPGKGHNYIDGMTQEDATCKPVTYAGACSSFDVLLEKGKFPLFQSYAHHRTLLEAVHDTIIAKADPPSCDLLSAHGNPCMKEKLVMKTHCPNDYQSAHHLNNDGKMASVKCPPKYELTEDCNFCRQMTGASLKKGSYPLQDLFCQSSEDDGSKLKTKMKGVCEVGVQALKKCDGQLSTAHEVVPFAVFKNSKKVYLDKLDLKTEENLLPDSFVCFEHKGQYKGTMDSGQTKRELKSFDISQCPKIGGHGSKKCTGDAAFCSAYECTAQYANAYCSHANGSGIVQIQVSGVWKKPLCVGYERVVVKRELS
Assay: BLI
Conditions: modification not given

## HVCLPSQFKCTNTNRCIPGIFRCNGQDNCGDGEDERDCPE [23-Fc]
  Kd: 260 nM
